Measurements from patent US20030202938A1 (UNIVERSITY OF MEDICINE AND DENTISTRY OF NEW JERSEY, published 2003).

Molecular target: T1, bovine serum albumin (bovine, UniProt P02769 25-607)
T1 construct: also called BSA
Assay: SELDI-TOF ProteinChip, protein covalently bound to PS-1 chip, SP added
Procedure: HGFIN-SP interaction was studied by pre-treating the PS1 chips with 50% acetonitrile for 3 min. After this, the chips were incubated for 45 min with the following: 2.5 μg HGFIN (experimental sample), anti-Id2, an unrelated IgG regarding its ability to complex with SP and was therefore treated as a negative control, rabbit anti-SP (positive control) or 20 ng fibronectin, fragment III-C (positive control). The arrays were blocked for 25 min with 1M ethanolamine and washed with PBS+0.5% Triton X (2×) and a final PBS wash step. After this the chips were washed with PBS+Triton-x, PBS, rinsed with 5 mM Hepes and then dried. CHCA was applied and the non-covalently bound SP was detected with the SELDI-Time of Flight Mass spectrometer as described for the profiling studies for HGFIN.
Fibronectin has been reported to bind SP. Therefore, this property of fibronectin was used as a positive control for SP interaction on the SELDI system. […] Similar results were shown with another positive control: rabbit anti-SP (covalently bound) and SP (FIG. 4C, lower chromatogram). No peak was detected in two negative controls, which consisted of bovine serum albumin or an unrelated antibody (anti-Id2) covalently bound to the surface of PS-1.

T1 sequence (P02769 25-607 limits assumed): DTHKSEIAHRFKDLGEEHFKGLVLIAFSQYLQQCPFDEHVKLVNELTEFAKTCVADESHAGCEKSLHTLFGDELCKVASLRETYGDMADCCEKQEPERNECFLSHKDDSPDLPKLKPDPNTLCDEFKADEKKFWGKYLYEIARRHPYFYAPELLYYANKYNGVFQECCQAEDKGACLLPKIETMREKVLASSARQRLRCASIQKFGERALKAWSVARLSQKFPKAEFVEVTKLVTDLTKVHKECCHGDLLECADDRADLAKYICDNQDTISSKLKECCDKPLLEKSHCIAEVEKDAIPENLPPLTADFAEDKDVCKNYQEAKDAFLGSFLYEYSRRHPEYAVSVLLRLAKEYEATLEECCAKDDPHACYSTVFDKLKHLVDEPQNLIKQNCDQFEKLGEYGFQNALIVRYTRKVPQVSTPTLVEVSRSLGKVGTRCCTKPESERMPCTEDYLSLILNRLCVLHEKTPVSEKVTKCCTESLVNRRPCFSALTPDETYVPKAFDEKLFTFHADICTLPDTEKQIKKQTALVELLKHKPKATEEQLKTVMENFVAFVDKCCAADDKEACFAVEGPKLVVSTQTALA

binding result: no binding
B1: Substance P (peptide, UniProt P20366 58-68, looked up)
peptide: RPKPQQFFGLM
notes: Substance P is an 11-residue peptide cut from it; 2 ug was added to the chips; also called SP
